Source: the supplement of paper PMC10567573

B1: ZBED3 (parent)
chain: GPGFHAGTSALWRHLRSAHRRELE
B2: KLHL14 (parent)
chain: CAVLDDSIYLVGGYSWSMGAYKSS

Variants of: B1
Test: protein stability index of a GFP-peptide fusion (GPS, HEK-293T) (PSI 1-6); higher = more stable
Settings: c terminus: a fixed tail appended
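Also: lentivirally expressed fusions sorted by FACS into six bins by GFP to DsRed ratio, PSI derived from sequencing read proportions per bin multiplied by bin number.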

Protein stability index: each site, then its substitutions
L23: T 1.97; M 2.32; S 2.36; N 2.03; C 2.14; V 1.92; I 2.19; F 2.11; K 2.79; G 2.32
G7: D 3.25; A 2.62; W 1.52; Y 2.68; M 2.35; E 5.51; C 1.75; R 2; T 2.21; Q 2.47
E24: P 1.93; H 1.85; I 2.65; T 2.35; D 1.94; F 2.32; N 1.91; G 1.76; C 1.65; Y 2.42; V 2.11; L 2; W 1.84; M 2.78; K 3.2
H5: F 2.88; C 3.46; Q 3.44; L 2.24; V 2.75; Y 2.89; N 3.06; P 4.37; S 2.95; M 2.82; W 2.76; E 3.63; D 3.69; A 3.33; K 2.67
T8: I 2.09; R 2.37; P 2.88; V 1.84; W 2.23; Q 1.98; M 2.37; E 2.48; K 2.5; S 2.89; D 3.67; H 2.4; F 1.64
R20: N 1.4; W 2.83; S 1.86; D 2.01; K 2.54; P 2.54; Y 1.62; E 2.08; A 1.82; H 1.37; C 2.27; I 1.74; M 2.17
G1: R 3.02; E 3.11; P 3.04; I 2.76; C 2.65; Q 3.51; W 2.7; S 1.79; H 3.15; V 2.9; A 2.7
L11: S 2.03; Q 2.54; C 2.41; E 2.52; F 1.7; K 3.32; P 2.23; Y 3.19; G 1.74; N 2.3; D 3.33; R 3.19; A 1.71; H 3.28; W 2.85
S17: T 2.65; P 1.9; E 2.78; L 3.44; R 2.42; I 2.17; M 2.25; H 1.85; Y 2.38; C 1.56; D 2.9; K 2.51; F 2.25; A 2.14
F4: G 3.01; P 3.59; T 3.75; A 3.15; D 3; N 2.84; Q 4.02; I 2.99; W 2.22; L 3.3; K 3.62; S 3.39; Y 3.37
P2: A 3.48; I 2.8; G 3.2; M 2.53; C 1.37; K 3.06; V 2.77; T 3.01; W 2.18; E 3.53
A6: C 1.65; L 2.24; S 2.14; H 2.12; G 2.54; T 2.33; Q 2.59; P 2.77; E 3.04; W 1.82; M 2.58
E22: M 2.38; I 1.95; A 2.76; Y 1.47; H 3.09; F 2.43; N 1.95; V 2.44; D 2.06; L 2.4; C 2.08; T 2.23; W 2.25
R13: F 1.73; L 1.79; G 1.81; S 1.36; Q 2.72; E 2.14; M 1.99; W 1.93; N 2.13; I 1.88; A 2.8; K 2.08; H 1.98
W12: C 1.45; E 3.17; F 2.1; V 2.44; Y 2.63; Q 2.72; G 1.64; A 3.38; N 2.3; R 3.35; T 2.54; L 2.24; D 2.92
S9: T 3.06; C 2; Q 2.96; N 2.68; D 2.99; G 1.71; H 2.53; I 1.74; W 2.05; Y 3.23; L 3.28
G3: L 3.26; E 3.67; W 1.96; M 3.16; S 2.9; C 3.23; T 3.75; A 3.22; Q 2.45; D 3.13
H19: M 1.73; Y 2.5; P 2.11; G 2.14; R 2.68; A 2.74; T 2.14; F 2.84; D 2.03; K 2.54; L 2.53; V 3.03
R21: M 1.9; I 1.97; D 2.35; Q 2.52; V 1.53; K 2.51; A 1.7; H 1.73; P 1.95; G 1.75; E 2.33; F 1.02; S 1.84
R16: L 1.81; D 2.25; K 2.41; F 2.07; G 1.73; A 2.45; Y 1.75
H14: L 2.62; P 2.1; W 1.74; D 2.13; K 2.2; I 1.78; C 2.17; R 2.32; Y 1.98; V 2.33; F 1.68; A 2.3; E 2.33; N 2.16
A10: P 2.28; D 3.22; H 2.63; M 2.02; F 2.33; E 4.86; Q 2.43; K 2; T 3.08; W 2.38; L 1.88
L15: W 2.7; G 1.27; K 3.15; Q 1.78; H 2.34; S 2.21; I 2.3; F 2.16; N 2.57; P 1.76; Y 2.1; E 1.76; D 1.87; A 1.93
A18: T 2.47; N 2.45; M 1.77; P 3.65; S 1.88; D 2.02; E 3.1; F 2.07; Q 2.61; L 2.79

Variants of: B2
Test: as above
Settings: c terminus: a fixed tail appended

Protein stability index, by site and new letter:
K22: R 3.14; H 3.04; G 2.66; Q 1.44; V 3.73; A 3.59; P 1.79; D 3.84; M 4.12; L 3.43; T 2.27; C 1.85; N 2.69; I 2.6
S24: C 2.32; G 1.65; K 2.36; I 3.41; A 4.41; R 1.75; Y 3.04; D 1.06; F 2.96; N 2.53; Q 2.2; T 3.12; E 2.32
S23: A 2.92; K 2.43; I 2.8; Y 1.98; D 1.96; L 5.74; C 2.2; Q 2.73; T 2.72; H 1.57; N 1.79; M 2.48; G 1; P 1.58
Y21: V 2.6; T 1.24
